Laboratory results taken from patent publication US20160333095A1 (Genmab, published 2016).

How the values were obtained:
[1] = target: T1, human CD3 (human, UniProt P07766 22-207); assay: flow cytometry on Jurkat cells, supernatant preparations, FIG. 21
T1 construct: also called CD3 on the human T-cell line Jurkat; CD3 on human T cells
Protocol: (§1) Jurkat cells (DSMZ, Brunswick, Germany) were thawed at 37° C. and washed once in 30 mL PBS and spun for 10 minutes at 300×g at 4° C. Cell pellet was resuspended in 25 mL of PBS/0.1% BSA/0.02% azide at a final concentration of 0.8×10⁶ cells/mL. 100 μL of this cell suspension (0.8×10⁵ cells/well) was transferred into polystyrene 96-well round-bottom plates (Greiner Bio-one, Alphen a/d Rijn, The Netherlands) and incubated with serial dilutions of supernatant preparations (range 3 to 10,000 ng/mL in 3-fold dilutions) in PBS/0.1% BSA/0.02% azide at 4° C. for 30 minutes. After washing three times in PBS/0.1% BSA/0.02% azide, Jurkat cells were incubated in 50 μL with secondary antibody at 4° C. for 30 min. As a secondary antibody, R-Phycoerythrin (PE)-conjugated goat-anti-human IgG F(ab′)2 (Jackson ImmunoResearch Laboratories, Inc., West Grove, Pa.) diluted 1/200 in PBS/0.1% BSA/0.02% azide, was used for all experiments. Next, Jurkat cells were washed twice in PBS/0.1% BSA/0.02% azide, re-suspended in 150 μL PBS/0.1% BSA/0.02% azide and analyzed on a FACS Cantoll (BD Biosciences). Binding curves were analyzed using nonlinear regression (sigmoidal dose-response with variable slope) using GraphPad Prism V 5.04 software (GraphPad Software, San Diego, Calif., USA).

[2] = target: T2, cynomolgus CD3 (cynomolgus monkey, UniProt Q95LI5 22-198); assay: flow cytometry on HSC-F cells, FIG. 2B
T2 construct: also called CD3 on the cynomolgus T-cell line HSC-F; cynomolgus CD3ε (epsilon)
Protocol: In addition to the non-activating mutations, LFLEDA, the antibody variants contained F405L or K409R mutations as described in Example 1.
Cells (1×10⁵ cells/well) were incubated in polystyrene 96-well round-bottom plates (Greiner bio-one 650101) with serial dilutions of antibody preparations (range 5 to 10,000 ng/mL in 3-fold dilutions) in 100 μL PBS/0.1% BSA/0.02% azide at 4° C. for 30 min.
After washing twice in PBS/0.1% BSA/0.02% azide, cells were incubated in 100 μL with secondary antibody at 4° C. for 30 min. As a secondary antibody, R-Phycoerythrin (PE)-conjugated goat-anti-human IgG F(ab′)2 (109-116-098, Jackson ImmunoResearch Laboratories, Inc., West Grove, Pa.) diluted 1/100 in PBS/0.1% BSA/0.02% azide, was used for all experiments. Next, cells were washed twice in PBS/0.1% BSA/0.02% azide, re-suspended in 150 μL PBS/0.1% BSA/0.02% azide and analyzed on a FACS Cantoll (BD Biosciences). Binding curves were analyzed using non-linear regression (sigmoidal dose-response with variable slope) using GraphPad Prism V 5.04 software (GraphPad Software, San Diego, Calif., USA).

[3] = target: T1, human CD3; assay: flow cytometry on isolated human T cells, FIG. 22
Protocol: As a secondary antibody, R-Phycoerythrin (PE)-conjugated goat-anti-human IgG F(ab′)2 (Jackson ImmunoResearch Laboratories, Inc., West Grove, Pa.) diluted 1/200 in PBS/0.1% BSA/0.02% azide, was used for all experiments. […] Binding curves were analyzed using nonlinear regression (sigmoidal dose-response with variable slope) using GraphPad Prism V 5.04 software (GraphPad Software, San Diego, Calif., USA).

[4] = target: T1, human CD3; assay: flow cytometry on Jurkat cells, FIG. 21
Protocol: as §1

T1 sequence (P07766 22-207 limits assumed): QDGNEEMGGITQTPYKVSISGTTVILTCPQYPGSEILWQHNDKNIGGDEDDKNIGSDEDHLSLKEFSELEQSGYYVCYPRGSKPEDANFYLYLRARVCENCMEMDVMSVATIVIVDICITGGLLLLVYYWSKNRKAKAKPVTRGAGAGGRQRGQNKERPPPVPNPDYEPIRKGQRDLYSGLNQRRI
T2 sequence (Q95LI5 22-198): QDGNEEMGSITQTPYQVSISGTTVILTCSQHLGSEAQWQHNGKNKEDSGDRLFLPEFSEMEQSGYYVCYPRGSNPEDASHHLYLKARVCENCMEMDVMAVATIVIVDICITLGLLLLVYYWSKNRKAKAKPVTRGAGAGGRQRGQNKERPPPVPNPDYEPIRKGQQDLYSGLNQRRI

| Binder | EC50 [1] [µg/mL] | further results |
| --- | --- | --- |
| IgG1-huCD3-H1-LFLEDA-LF10L (antibody, V domains shown, IgG1 with LFLEDA (L234F/L235E/D265A); tested as supernatant preparation; also called IgG1-huCD3-H1L1-LF10L (with LFLEDA)) VH: EVKLVESGGGLVQPGGSLRLSCAASGFTFNTYAMNWVRQAPGKGLEWVARIRSKYNNYATYYADSVKDRFTISRDDSKSSLYLQMNNLKTEDTAMYYCVRHGNFGNSYVSWFAYWGQGTLVTVSS VL: not shown | 0.169 |  |
| bsIgG1 CD3×HER2 (bispecific antibody, V domains shown) VH 1: EVKLLESGGGLVQPKGSLKLSCAASGFTFNTYAMNWVRQAPGKGLEWVARIRSKYNNYATYYADSVKDRFTISRDDSQSILYLQMNNLKTEDTAMYYCVRHGNFGNSYVSWFAYWGQGTLVTVSA VL 1: QAVVTQESALTTSPGETVTLTCRSSTGAVTTSNYANWVQEKPDHLFTGLIGGTNKRAPGVPARFSGSLIGDKAALTITGAQTEDEAIYFCALWYSNLWVFGGGTKLTVL VH 2: QVQLVQSGAEVKKPGASVKVSCKASGYTFTNYGISWVRQAPGQGLEWMGWLSAYSGNTIYAQKLQGRVTMTTDTSTTTAYMELRSLRSDDTAVYYCARDRIVVRPDYFDYWGQGTLVTVSS VL 2: EIVLTQSPATLSLSPGERATLSCRASQSVSSYLAWYQQKPGQAPRLLIYDASNRATGIPARFSGSGSGTDFTLTISSLEPEDFAVYYCQQRSNWPRTFGQGTKVEIK |  | binding result [2]: binds |
| bsIgG1 huCD3-H3L1×HER2-LFLEDA (bispecific antibody, V domains shown, LFLEDA = L234F/L235E/D265A; also called bsIgG1 huCD3-H3L1-LFLEDA) VH 1: EVKLVESGGGLVKPGRSLRLSCAASGFTFNTYAMNWVRQAPGKGLEWVARIRSKYNNYATYYADSVKDRFTISRDDSKSILYLQMNSLKTEDTAMYYCVRHGNFGNSYVSWFAYWGQGTLVTVSS VL 1: not shown VH 2: QVQLVQSGAEVKKPGASVKVSCKASGYTFTNYGISWVRQAPGQGLEWMGWLSAYSGNTIYAQKLQGRVTMTTDTSTTTAYMELRSLRSDDTAVYYCARDRIVVRPDYFDYWGQGTLVTVSS VL 2: EIVLTQSPATLSLSPGERATLSCRASQSVSSYLAWYQQKPGQAPRLLIYDASNRATGIPARFSGSGSGTDFTLTISSLEPEDFAVYYCQQRSNWPRTFGQGTKVEIK |  | binding result [2]: binds |
| bsIgG1-huCD3-H1L1-LK55N/HER2-LFLEDA (bispecific antibody, V domains shown, LFLEDA = L234F/L235E/D265A; also called bsIgG1-huCD3-LK55N/HER2-LFLEDA) VH 1: EVKLVESGGGLVQPGGSLRLSCAASGFTFNTYAMNWVRQAPGKGLEWVARIRSKYNNYATYYADSVKDRFTISRDDSKSSLYLQMNNLKTEDTAMYYCVRHGNFGNSYVSWFAYWGQGTLVTVSS VL 1: not shown VH 2: QVQLVQSGAEVKKPGASVKVSCKASGYTFTNYGISWVRQAPGQGLEWMGWLSAYSGNTIYAQKLQGRVTMTTDTSTTTAYMELRSLRSDDTAVYYCARDRIVVRPDYFDYWGQGTLVTVSS VL 2: EIVLTQSPATLSLSPGERATLSCRASQSVSSYLAWYQQKPGQAPRLLIYDASNRATGIPARFSGSGSGTDFTLTISSLEPEDFAVYYCQQRSNWPRTFGQGTKVEIK |  | EC50 [3]: 0.61 µg/mL |
| IgG1-huCD3-H1-LFLEDA-LL97H (antibody, V domains shown, IgG1 with LFLEDA; supernatant preparation) VH: EVKLVESGGGLVQPGGSLRLSCAASGFTFNTYAMNWVRQAPGKGLEWVARIRSKYNNYATYYADSVKDRFTISRDDSKSSLYLQMNNLKTEDTAMYYCVRHGNFGNSYVSWFAYWGQGTLVTVSS VL: not shown | 0.095 |  |
| IgG1-huCD3-H1-LFLEDA-LT41K (antibody, V domains shown, IgG1 with LFLEDA; supernatant preparation; also called T41K mutant) VH: EVKLVESGGGLVQPGGSLRLSCAASGFTFNTYAMNWVRQAPGKGLEWVARIRSKYNNYATYYADSVKDRFTISRDDSKSSLYLQMNNLKTEDTAMYYCVRHGNFGNSYVSWFAYWGQGTLVTVSS VL: not shown | 0.096 |  |
| IgG1-huCD3-H1-LFLEDA-LLKNH (antibody, V domains shown, IgG1 with LFLEDA; supernatant preparation; also called LKNH mutant) VH: EVKLVESGGGLVQPGGSLRLSCAASGFTFNTYAMNWVRQAPGKGLEWVARIRSKYNNYATYYADSVKDRFTISRDDSKSSLYLQMNNLKTEDTAMYYCVRHGNFGNSYVSWFAYWGQGTLVTVSS VL: QAVVTQEPSLSVSPGGTVTLTCRSSTGAVTTSNYANWVQQKPGQAFRGLIGGTNNRAPGVPARFSGSLIGDKAALTITGAQADDESIYFCALWYSNHWVFGGGTKLTVL | 0.438 | fold lower apparent affinity than wild type IgG1-huCD3-H1L1-LFLEDA [4]: 5 fold |
| IgG1-huCD3-H1-LFLEDA-LK55N (antibody, V domains shown, IgG1 with LFLEDA; supernatant preparation; also called K55N mutant) VH: EVKLVESGGGLVQPGGSLRLSCAASGFTFNTYAMNWVRQAPGKGLEWVARIRSKYNNYATYYADSVKDRFTISRDDSKSSLYLQMNNLKTEDTAMYYCVRHGNFGNSYVSWFAYWGQGTLVTVSS VL: not shown | 0.531 | fold lower apparent affinity than wild type IgG1-huCD3-H1L1-LFLEDA [4]: 5 fold |
